Experimental data published in patent US20050008628A1.

Biological target: mutant voltage gated potassium channel (Kv1.3)
Assay: cell-based or functional assay

Margatoxin (from UniProt P40755 1-39) (peptide)
local ventricular effective refractory period (ERP) at graft site after MTx, one rat (170 ms before MTx): 100 ms
